Tests used:
AUC = target: the molecule itself; test: AUC
SEC = target: the molecule itself; test: SEC

B1: α-mDelNT (N-terminal half of mouse α-Delphilin) (domain or fragment, UniProt Q0QWG9-2 1-558, looked up)
chain: MSCLGIFIPKKHRARFDEVVSQGLLGKLCRARRAQGAQRLRRSRSEERPERLLVSTRASAAPRRPDEPPPRKATSLLGGRTGPGGPRRTVRVYKGNKSFGFTLRGHGPVWIESVLPGSPAENASLKSGDRILFLNGLDMRNCSHDKVVSMLQGSGAMPTLVVEEGPVPFASDSDSLDSPTRASALTSLQWVADILPSSIRVQGRTFSQQLDHLLTPPERYGVCRALERFFQHRNIDTLIVDVYPVLDTPAKQVLWQFLYQLLTYEEQELCQEKIACFLGYTAMTEPESSLDLEPESTPEPTPEPQPRSSLRASSMCRRSLRSQGLETSLSCGPGDCPEMPLPLIPGERQAGDGTSLPETPNPKMMSAVYAELESRLNSSFKGKIGTMSKSRASPPVPSLVGTSGPRTLSGVSWPSDRLLPSPCYDPLCSGGLASPSSSESHPYASLDSSRAPSPQPGLGSIHADSPPSPDPIRPPSRRKLFAFSRPVRSRDTDRFLDALSEQLGPRLSIVDDFLTPENDYEEMSFHDDQGSFVTNERSSASECVSSSEEGSSLTYSSI
stoichiometry N (AUC): 6 subunits
stoichiometry N (SEC): 7 subunits

Reference: article doi:10.1101/151191 (bioRxiv, 2017)
